Experimental findings from patent publication US20240309103A1 are described below.

The target in assay [1] is mNPR1-mFc:hANP complex (mouse; human) (UniProt P01160). Briefly: SPR Biacore, mAb captured by anti-human Fc, 25C. (SPR reads the build-up and loss of mass on a sensor chip optically.)
The target in assay [2] is mNPR1-mFc:hBNP complex (mouse; human) (UniProt P16860). Briefly: SPR Biacore, mAb captured by anti-human Fc, 25C.
Assay [3] has as its target mNPR1-mFc:hANP complex (mouse; human) (UniProt P01160). As to the kind of experiment: SPR Biacore, mAb captured by anti-human Fc, 37C.
In assay [4] the target is mNPR1-mFc:hBNP complex (mouse; human) (UniProt P16860). As to the kind of experiment: SPR Biacore, mAb captured by anti-human Fc, 37C.
Assay [5] deals with human NPR1 on HEK293/hNPR1.myc.DDK cells (no hANP added) (human) (UniProt P16066). Briefly: cell-based or functional assay.
Sequence of human NPR1 on HEK293/hNPR1.myc.DDK cells (no hANP added) (human) (P16066 33-1061): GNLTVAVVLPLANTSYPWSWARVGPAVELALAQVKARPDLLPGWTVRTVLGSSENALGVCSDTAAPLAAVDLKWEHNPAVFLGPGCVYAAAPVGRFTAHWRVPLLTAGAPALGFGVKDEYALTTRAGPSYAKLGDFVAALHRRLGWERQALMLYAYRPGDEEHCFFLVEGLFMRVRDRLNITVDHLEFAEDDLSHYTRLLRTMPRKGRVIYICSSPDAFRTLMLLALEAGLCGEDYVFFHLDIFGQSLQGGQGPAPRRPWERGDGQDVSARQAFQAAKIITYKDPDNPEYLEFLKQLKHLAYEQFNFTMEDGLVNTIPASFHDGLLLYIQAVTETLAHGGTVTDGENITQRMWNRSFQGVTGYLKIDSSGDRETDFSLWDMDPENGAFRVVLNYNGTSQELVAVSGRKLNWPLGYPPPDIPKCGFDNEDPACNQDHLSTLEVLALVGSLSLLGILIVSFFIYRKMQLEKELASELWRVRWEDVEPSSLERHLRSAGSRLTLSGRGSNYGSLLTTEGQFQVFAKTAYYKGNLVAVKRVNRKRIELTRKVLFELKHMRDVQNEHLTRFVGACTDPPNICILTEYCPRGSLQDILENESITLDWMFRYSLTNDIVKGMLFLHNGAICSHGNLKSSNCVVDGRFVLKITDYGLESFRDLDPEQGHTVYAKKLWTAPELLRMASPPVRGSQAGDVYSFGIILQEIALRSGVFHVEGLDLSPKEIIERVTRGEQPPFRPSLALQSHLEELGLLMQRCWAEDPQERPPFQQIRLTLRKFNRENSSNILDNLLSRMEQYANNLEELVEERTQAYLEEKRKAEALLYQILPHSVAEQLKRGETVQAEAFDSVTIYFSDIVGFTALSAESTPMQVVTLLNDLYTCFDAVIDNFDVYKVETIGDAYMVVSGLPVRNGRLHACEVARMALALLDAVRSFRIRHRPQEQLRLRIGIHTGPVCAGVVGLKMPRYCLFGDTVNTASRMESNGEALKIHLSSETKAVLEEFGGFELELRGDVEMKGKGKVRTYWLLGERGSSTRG
In assay [6] the target is human NPR1 on HEK293/hNPR1.myc.DDK cells (0 hANP) (human) (UniProt P16066). Briefly: cell-based or functional assay.
Sequence of human NPR1 on HEK293/hNPR1.myc.DDK cells (0 hANP) (human) (P16066 33-1061): as above
Assay [7] shares this target. As to the kind of experiment: ECL cell binding (MSD), 0 hANP.
The target in assay [8] is mNPR1-mFc:hANP complex (mouse; human) (UniProt P01160). Briefly: SPR Biacore, mAb captured by anti-human Fc, 37C; kinetics IC* (inconclusive).
The target in assay [9] is mNPR1-mFc:hBNP complex (mouse; human) (UniProt P16860). The assay is described as above.

What is called Kd is the equilibrium constant for the complex coming apart. One may read the koff as the rate constant with which the complex falls apart. A lower koff goes with a long-lived complex. Broadly, the kon is the rate constant with which the complex forms. As a reminder, the t½ is the time in which the quantity being followed falls by half.

B1: mAb25491 (antibody, human IgG4, V domains shown)
VH: QVQLVQSGAEVMKPGASVKVSCKASGYTFTGYYIHWVRQAPGQGLEWMGWITPNSGATNYAQKFQGRVTLTRDTSISTAYMELTRLKSDDTAVYYCARGGQLEFFYYYYGMDVWGQGTTVTVSS
VL: DIQMTQSPSSLSASAGDRVTITCRASQSIDSYLNWYQQKPGKAPKLLISATSGFQSGVPSRFSGSGSGTDFTLTISSLQPEDFGTYYCQQSYTTPITFGQGTRLEIK
In the case of B1, the 100 nM Ag Bound (RU) was 1 RU in assay [1], 5 RU in assay [2], 1 RU in assay [3] and 4 RU in [4].

B2: mAb25508 (antibody, human IgG4, V domains shown)
VH: EVQLVESGGGVVRPGGSLRLSCAASGFNVDDYGMSWVRQIPGKGLEWISGINWNGGRIYYADSMKGRITISRDNAKNSLYLQMNSLRAEDTALYHCVRDQWLVRGLDYWGQGTLVTVSS
VL: DIQMTQSPSSLSASVGDRVTITCRASQGIYNYLAWFQQKPGKAPKSLIYAASSLQSGVPSKFSGSGSGTDFTLTISSLQPEDFATYYCQQYNTYPYTFGQGTKLEIK
Regarding B2, the 100 nM Ag Bound (RU) in assay [1] was found to be 0 RU; in [2], 1 RU; in assay [3], 0 RU; in assay [4], 1 RU.

B3: mAb22033 (antibody, human IgG4, V domains shown)
VH: QVQLVQSGAEVKKPGASVTVSCKASGYTFTDYYMHWVRQAPGQGLEWMGWIKPNSGGTNSAQRFQGRITMTWDTSISTAYMELSRLRSDDTAVYYCSRGGPVMNYYYYYGMDVWGQGTTVTVSS
VL: NIQMTQSPSSLSASVGDRVTITCRASQSIDSYLNWYQQKPGKAPKLLIYVASSLQSGVPSRFSGSGSGKDFTLTISSLQPEDFATYYCQQSYSIPTFGQGTRLEIK
With B3, the 100 nM Ag Bound (RU) in assay [1] is 1 RU; in assay [2] it was 5 RU; in [3], 2 RU; in assay [4], 4 RU.

B4: mAb22035 (antibody, human IgG4, V domains shown)
VH: EVQLVESGGGLVQPGRSLRLSCAASGFTFDDYAMHWVRQAPGKGLEWVSGISWNSGTIGYADSVKGRFTMSRDNAKNSLYLQMNSLRPEDTALYYCAKDMGVSLALWGAFDIWGQGTMVTVSS
VL: DIQMTQSPSSLSASVGDKVTITCRASQNIRTYLNWYQQKPGKAPKVLISTASSLQSGVPSRFSGSGSGTDFTLTISSLQPEDFAVFYCQQSFGIPRTFGQGTKVEIK
Consider B4, for which the 100 nM Ag Bound (RU) in assay [1] stood at 0 RU; in [2], 0 RU; in [3] it was 1 RU; in assay [4], 1 RU.

B5: mAb25497 (antibody, human IgG4, V domains shown)
VH: QVQLVQSGAEVKEPGASVKVSCKASGYTFTDYYIHWVRQAPGQGLEWMGWINLNSGGKNHAQKFQGRVTVTSDTSINTAYIELGRLRGDDTAVYYCSRGGGSHYYYYYHGMDVWGQGTTVTVSS
VL: DIQMTQSPSSLSASVGDRITITCRASHSIDSYLNWYQQKPGKAPKLLIYPASTLQSGVPSRFSGSGSGTDFTLTISSLQPEDSAIYYCQQSYSTPLTFGGGTKVEIK
Consider B5, for which the 100 nM Ag Bound (RU) in assay [1] stood at 1 RU; in [2], 2 RU; in assay [3], 1 RU; in assay [4], 2 RU.

B6: mAb22809 (antibody, human IgG4, V domains shown)
VH: QLQLRESGPGLVKPSETLSLTCTVSGGSINDNSFFWDWIRQTPGRGLEWIGNIFFDGNTYYTPSLKSRVIISVDMSQNQFSLRLTSVTAADTALYYCARHKRSMTAWGFFDYWGQGTLVTVSS
VL: DIQMTQSPSSLSASVGDRVTITCRASKRINTYLNWYQQKPGKAPKVLIYSASNLQSGVPSRFSGSGSGTDFTLTINSLQPEDFATYFCQQSFSAPPITFGQGTRLEIK
Regarding B6, the 100 nM Ag Bound (RU) in assay [1] was determined as 0 RU; in [2], 1 RU; in assay [3], 1 RU; in assay [4] it was 1 RU.

B7: mAb25502 (antibody, human IgG4, V domains shown)
VH: QLQLQESGPGLVKPSETLSLTCTVSGGSISSSSYYWGWIRQPPGKGLEWIGSIYYSGSPYYIPSLKSRVTISVDTSKNQFSLKLSSVTAADTAMYYCARQGRGIARAGPFDYWGQGTLVTVSS
VL: DIQMTQSPSSLSASVGDRVTITCRASQGISNYLAWYQEKPGKVPKLLIYAASTLQSGVPSRFSGSGSGTDFTLTITSLQSEDVATYYCQKYNSAPPWTFGQGTKVEIK
For B7, in assay [5], the EC50 of Ca2+ flux activation, Expt II is more than 200 nM. For the same molecule, in assay [6], the % Activation (vs ANP max), Expt 1 is 92.9%; the % Activation (vs. ANP max), Expt II is 110%; the EC50 (nM), calcium flux, Expt 1 amounted to 161 nM; the EC50 (nM), calcium flux, Expt II was more than 200 nM. Also, the Ratio at 3.7 nM Ab concentration of Cell Binding Signal (RLU) to HEK293/hNPR1.myc.DKK relative to parental HEK293 in [7] came to 1. In assay [1], this molecule displayed a 100 nM Ag Bound (RU) of 25 RU, a Kd of 337 nM, a koff of 0.0799 s⁻¹ and a kon of 237000 M⁻¹ s⁻¹. This molecule also returned a t½ in [1] of 8.4 s. In assay [2], the 100 nM Ag Bound (RU) was found to be 25 RU, the Kd amounted to 215 nM, the koff is 0.0503 s⁻¹ and the kon was 234000 M⁻¹ s⁻¹. Moreover, the t½ in [2] came to 13.8 s. In assay [3], this molecule yielded a 100 nM Ag Bound (RU) of 35 RU, a Kd of 334 nM, a koff of 0.0883 s⁻¹ and a kon of 264000 M⁻¹ s⁻¹. This molecule showed a t½ in [3] of 7.8 s. In [4], this molecule gave a 100 nM Ag Bound (RU) of 34 RU, a Kd of 342 nM, a koff of 0.0998 s⁻¹ and a kon of 291000 M⁻¹ s⁻¹. The molecule further had a t½ in assay [4] of 7.2 s.

B8: mAb22805 (antibody, human IgG4, V domains shown)
VH: QVQLVESGGGVVQPGRSLRLSCAASGFTFSTYGMHWVRQAPGKGLEWVALIWNDGSNKYYADSVKGRFTISRDNSKNTLDLQMNSLRAEDTAVYYCARLNTRITGTTNLDYWGQGTLVTVSS
VL: DIQMTQSPSSLSASVGDRVTVSCRASQSIANYLNWYQQKPGKAPNLLIYGAYTLQSGVPSRFRGSGSGTDFTLTISSLQPEDFATYYCQQTYSTPPITFGQGTRLEIK
In assay [8], B8 showed a 100 nM Ag Bound (RU) of 15 RU. In assay [9], this molecule gave a 100 nM Ag Bound (RU) of 17 RU. For the same molecule, in assay [1], the 100 nM Ag Bound (RU) was 18 RU, the Kd amounted to 424 nM, the koff amounted to 0.0839 s⁻¹ and the kon is 198000 M⁻¹ s⁻¹. The molecule further showed a t½ in assay [1] of 8.4 s. In assay [2], this molecule yielded a 100 nM Ag Bound (RU) of 21 RU, a Kd of 445 nM, a koff of 0.0682 s⁻¹ and a kon of 153000 M⁻¹ s⁻¹. This molecule returned a t½ in [2] of 10.2 s.
